Numbering of substitutions follows the chain as printed. Read-outs that look alike come from different tables or passages of the source.
How the values were obtained:
[1] = biological target: T1, human CD40 (hCD40), full length, on cells (human, UniProt P25942 21-277); test: cell-based or functional assay
[2] = biological target: T2, hCD40-His protein (Acro, Cat. No.: CD0-H5228) (human, UniProt P25942 21-193); test: BLI (Fortebio Octet RED96e), antibody captured on AHC sensor, antigen 1.56-100 nM, 1:1 model
T2 construct: Bought protein; also called human CD40 antigen; not shown: His tag
Procedure: (§1) The affinity of humanized anti-CD40 antibodies to an hCD40-His protein (Acro, Cat. No.: CD0-H5228) and a CynoCD40-His protein (Acro, Cat. No.: CD0-C52H6) was detected by a ForteBio molecular interaction system. Firstly, an AHC biosensor (Fortebio, Cat. No.: 18-5060) was activated, and then immersed in an anti-CD40 antibody solution at a final concentration of 5 μg/mL to capture the antibodies. Serially 2-fold diluted hCD40-His protein and CynoCD40-His protein in a final concentration range of 1.56 nM-100 nM were then […] the AHC biosensor. The response signals were detected in real time on a Fortebio molecular interaction system (Fortebio Octet RED96e) to give association and dissociation curves. After the completion of dissociation in each cycle, the AHC biosensor was regenerated for the next capture; the procedure was repeated until the affinity of the different antibodies for CD40 was determined. The resulting data were analyzed by Fortebio Data Analysis 11.0 software using a 1:1 (Langmuir) binding model to determine the Kₐ (Kₒₙ) and Kd (Kdis) values, and the dissociation constant KD was calculated by KD=Kd/Kₐ. See www.fortebio.com for more detailed detection procedures and related information.

[3] = biological target: T1, human CD40 (hCD40), full length, on …; test: flow cytometry (MFI) on CHO-K1-hCD40 cells, PE anti-human IgG detection
[4] = biological target: T1, human CD40 (hCD40), full length, on …; test: cell-based or functional assay; remark: listed apart in the source
[5] = biological target: T1, human CD40 (hCD40), full length, on …; test: cell-based or functional assay; remark: listed apart in the source
[6] = biological target: T3, hCD40-mFc (human); test: flow cytometry, blocking of hCD40-mFc (2 µg/mL) binding to CHO-K1-hCD40L cells
T3 construct: Prepared in-house in CHO cells; also called human CD40 recombinant protein containing a mouse antibody heavy chain Fc; Human CD40-mFc
Procedure: A CHO-K1-hCD40L cell suspension and a CHO-K1-CynoCD40L cell suspension at a cell concentration of 3×10⁵ cells/mL were separately added into a 96-well U-bottom plate at 100 μL/well. An hCD40-mFc protein at a final concentration of 2 μg/mL (prepared in-house, SEQ ID NO: 64) or a cynoCD40-mFc protein at a final concentration of 2 μg/mL (prepared in-house, SEQ ID NO: 65) was added correspondingly, before serially 2-fold diluted anti-CD40 antibodies in a final concentration range of 312.5 ng/ml-40000 ng/ml were added. The mixture was mixed well, and then incubated at 4° C. for 1 h. The cells were washed with PBS containing 2% of FBS, and then a PE-conjugated goat anti-mouse IgG (H+L) antibody (Abcam, Cat. No.: ab97041) diluted at a volume ratio of 1:500 was added, and the mixture was incubated at 4° C. for 0.5 h. The cells were washed with PBS containing 2% of […], and then resuspended in PBS containing 2% of FBS. The fluorescence signals were detected on a flow cytometer (Sartorius IQue3). The activity of anti-CD40 antibodies to block the binding of CHO-K1-hCD40L cells to an hCD40-mFc protein and CHO-K1-cynoCD40L cells to a cynoCD40-mFc protein was analyzed by the mean fluorescence intensity (MFI) of staining, and the IC₅₀ value was calculated by GraphPad Prism software.

[7] = biological target: T1, human CD40 (hCD40), full length, on …; test: flow cytometry (MFI) on 293T-hCD40-NFκB cells, PE anti-human IgG detection
[8] = biological target: T4, CynoCD40-His protein (Acro, Cat. No.: CD0-C52H6) (cynomolgus monkey, UniProt P25942 21-193 (human entry)); test: BLI (Fortebio Octet RED96e), antibody captured on AHC sensor, antigen 1.56-100 nM, 1:1 model
T4 construct: Bought protein; also called cynomolgus monkey CD40 antigen; not shown: His tag
T4 chain: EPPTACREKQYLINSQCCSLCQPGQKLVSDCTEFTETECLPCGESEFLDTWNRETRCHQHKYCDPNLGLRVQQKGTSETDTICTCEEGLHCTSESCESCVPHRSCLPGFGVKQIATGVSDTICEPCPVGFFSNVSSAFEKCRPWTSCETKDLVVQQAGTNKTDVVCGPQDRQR
Procedure: as §1

[9] = biological target: T1, human CD40 (hCD40), full length, on …; test: cell-based or functional assay; remark: listed apart in the source

B1: Chi-A03 (antibody, human IgG4 S228P, kappa, V domains shown)
VH: DVQLQESGPDRVKPSQSLSLTCTVTGYSITSDYSWHWIRQFPGNKLEWMGYIYSSGHTYYNPSLKSRISFTRDTSKNQFFLQLNSVTTEDTATYYCAIYYYGRSYFDNWGRGTTLTVSS
VL: QIVLTQSPAIMSASPGEKVTLTCSASSSVNYMHWYQQKSGTSPKRWIYDTSKLASGVPARFSGSGSGTSYSLTISSMEAEDAATYYCQQWSSNPLTFGAGTKLELKR
notes: also called chimeric A03
- IC50, inhibition of Ramos cell apoptosis induced by CD40L and IL-4 [1]: 134 pM
- Inhibition, % of Ramos cell apoptosis at 0.064 ng/L (so in the source) [1]: -8%
- Inhibition, % of Ramos cell apoptosis at 0.32 ng/L (so in the source) [1]: -9%
- Inhibition, % of Ramos cell apoptosis at 1.6 ng/L (so in the source) [1]: -10%
- Inhibition, % of Ramos cell apoptosis at 8 ng/L (so in the source) [1]: 18%
- Inhibition, % of Ramos cell apoptosis at 40 ng/L (so in the source) [1]: 66%
- Inhibition, % of Ramos cell apoptosis at 200 ng/L (so in the source) [1]: 90%
- Inhibition, % of Ramos cell apoptosis at 1000 ng/L (so in the source) [1]: 98%
- Kd [2]: 2510 pM
- koff [2]: 0.00147 s⁻¹
- kon [2]: 586000 M⁻¹ s⁻¹
- EC50 [3]: 1360 pM

B2: hzA01-3.3 (antibody, human IgG4 S228P, kappa, V domains shown)
VH: QVQLKESGPGLVKPSETLSLTCTVSGFSLPTSGVHWIRQPPGKGLEWIGVIWAGGDTNYNSALKSRVTISKDNSKSQVFLKLSSVTAADTAVYYCLGHGHFDVWGQGTLVTVSS
VL: DVVMTQSPLSLPVTLGQPASISCRSSQSLVHSSGNTYLQWYLQRPGQSPGLLIYKVSNRFSGVPDRFSGSGSGTDFTLKISRVEAEDVGVYYCSQTTHVPWTFGQGTKLEIKR
notes: Humanized A01; also called hzA01L3 + hzA01H3
- IC50 (read off the curve); NF-κB luciferase reporter (RLU), 293T-hCD40-NFκB cells co-cultured 1:1 with CHO-K1-hCD40L cells [4]: ~2 ng/mL
- MFI value (CD95 on Ramos cells), Fc crosslinking with anti-human IgG Fcγ antibody, 1 µg/mL antibody [5]: 14100 MFI
- MFI value (CD95 on Ramos cells), Fc crosslinking with anti-human IgG Fcγ antibody, 10 µg/mL antibody [5]: 12300 MFI
- IC50 [6]: 38400 pM
- EC50 (read off the curve) [7]: ~3 ng/mL
- Kd [2]: 255 pM
- koff [2]: 0.000414 s⁻¹
- kon [2]: 1.63e+06 M⁻¹ s⁻¹
- Kd [8]: 243 pM
- koff [8]: 0.000484 s⁻¹
- kon [8]: 1.99e+06 M⁻¹ s⁻¹

B3: Chi-A01 (antibody, human IgG4 S228P, kappa, V domains shown)
VH: QVQLKESGPGLVAPSQSLSITCTVSGFSLPTSGVHWVRQPPGKGLEWLGVIWAGGDTNYNSALMSRLSISKDNSKSQVFLKMNSLQKDDTAIYYCLGHGHFDVWGAGTTVTVSS
VL: B2 VL with S7T, T14S, Q17D, P18Q, R44K, V88L, Y92F, Q105G
notes: also called chimeric A01
- IC50, inhibition of Ramos cell apoptosis induced by CD40L and IL-4 [1]: 5.08 pM
- Inhibition, % of Ramos cell apoptosis at 0.064 ng/L (so in the source) [1]: 0%
- Inhibition, % of Ramos cell apoptosis at 0.32 ng/L (so in the source) [1]: 17%
- Inhibition, % of Ramos cell apoptosis at 1.6 ng/L (so in the source) [1]: 82%
- Inhibition, % of Ramos cell apoptosis at 8 ng/L (so in the source) [1]: 96%
- Inhibition, % of Ramos cell apoptosis at 40 ng/L (so in the source) [1]: 95%
- Inhibition, % of Ramos cell apoptosis at 200 ng/L (so in the source) [1]: 96%
- Inhibition, % of Ramos cell apoptosis at 1000 ng/L (so in the source) [1]: 95%
- IC50 (read off the curve); NF-κB luciferase reporter (RLU), 293T-hCD40-NFκB cells co-cultured 1:1 with CHO-K1-hCD40L cells [4]: ~0.6 ng/mL
- IC50, inhibition of Ramos cell apoptosis induced by CD40L and IL-4 [9]: 4.13 pM
- Inhibition, % of Ramos cell apoptosis at 0.0128 ng/mL [9]: 11%
- Inhibition, % of Ramos cell apoptosis at 0.064 ng/mL [9]: 10%
- Inhibition, % of Ramos cell apoptosis at 0.32 ng/mL [9]: 39%
- Inhibition, % of Ramos cell apoptosis at 1.6 ng/mL [9]: 79%
- Inhibition, % of Ramos cell apoptosis at 8 ng/mL [9]: 101%
- Inhibition, % of Ramos cell apoptosis at 40 ng/mL [9]: 99%
- Inhibition, % of Ramos cell apoptosis at 200 ng/mL [9]: 101%
- Inhibition, % of Ramos cell apoptosis at 1000 ng/mL [9]: 100%
- IC50 [6]: 21300 pM
- EC50 (read off the curve) [7]: ~2 ng/mL
- Kd [2]: 153 pM
- koff [2]: 0.000283 s⁻¹
- kon [2]: 1.85e+06 M⁻¹ s⁻¹
- Kd [8]: 162 pM
- koff [8]: 0.000276 s⁻¹
- kon [8]: 1.7e+06 M⁻¹ s⁻¹
- EC50 [3]: 430 pM

B4: Chi-A02 (antibody, human IgG4 S228P, kappa, V domains shown)
VH: B3 VH with P30T, T31S, N58S, K87T, I92M, F101L
VL: B2 VL with S7T, T14S, Q17D, P18Q, Q39H, R44K, V88L, Y92F, Q105G
notes: also called chimeric A02
- IC50, inhibition of Ramos cell apoptosis induced by CD40L and IL-4 [1]: 4.99 pM
- Inhibition, % of Ramos cell apoptosis at 0.064 ng/L (so in the source) [1]: 5%
- Inhibition, % of Ramos cell apoptosis at 0.32 ng/L (so in the source) [1]: 20%
- Inhibition, % of Ramos cell apoptosis at 1.6 ng/L (so in the source) [1]: 85%
- Inhibition, % of Ramos cell apoptosis at 8 ng/L (so in the source) [1]: 98%
- Inhibition, % of Ramos cell apoptosis at 40 ng/L (so in the source) [1]: 97%
- Inhibition, % of Ramos cell apoptosis at 200 ng/L (so in the source) [1]: 97%
- Inhibition, % of Ramos cell apoptosis at 1000 ng/L (so in the source) [1]: 94%
- EC50 [3]: 390 pM

B5: hzA01-3.4 (antibody, human IgG4 S228P, kappa, V domains shown)
VH: B2 VH with K64M, L82M
VL: B2 VL
notes: Humanized A01; also called hzA01L3 + hzA01H4
- IC50 (read off the curve); NF-κB luciferase reporter (RLU), 293T-hCD40-NFκB cells co-cultured 1:1 with CHO-K1-hCD40L cells [4]: ~0.6 ng/mL
- IC50 [6]: 19800 pM
- EC50 (read off the curve) [7]: ~2 ng/mL
- Kd [2]: 264 pM
- koff [2]: 0.000454 s⁻¹
- kon [2]: 1.72e+06 M⁻¹ s⁻¹
- Kd [8]: 262 pM
- koff [8]: 0.000532 s⁻¹
- kon [8]: 2.03e+06 M⁻¹ s⁻¹

Reference: patent US20240383994A1 (CHIA TAI TIANQING PHARMACEUTICAL GROUP, published 2024)
